Results from US20100248359A1 (Chugai, published 2010).
Changes are numbered by the printed parent chain. Names may count otherwise. Read-outs that look alike come from different tables or passages of the source. Blank lines part the entries; values can stand above or below the binder they belong to.

Key:
[1] = target: T1, full-length human GPC3 (human, UniProt P51654 25-554); test: flow cytometry, antibody at 5 µg/mL, HepG2 cells
T1 construct: On CHO (DXB11) or SK-HEP-1 (SK-03) transfectants; also used here for the GPC3 on the hepatoma lines HepG2 and HuH-7; also called human glypican 3
T1 sequence (P51654 25-554 limits assumed): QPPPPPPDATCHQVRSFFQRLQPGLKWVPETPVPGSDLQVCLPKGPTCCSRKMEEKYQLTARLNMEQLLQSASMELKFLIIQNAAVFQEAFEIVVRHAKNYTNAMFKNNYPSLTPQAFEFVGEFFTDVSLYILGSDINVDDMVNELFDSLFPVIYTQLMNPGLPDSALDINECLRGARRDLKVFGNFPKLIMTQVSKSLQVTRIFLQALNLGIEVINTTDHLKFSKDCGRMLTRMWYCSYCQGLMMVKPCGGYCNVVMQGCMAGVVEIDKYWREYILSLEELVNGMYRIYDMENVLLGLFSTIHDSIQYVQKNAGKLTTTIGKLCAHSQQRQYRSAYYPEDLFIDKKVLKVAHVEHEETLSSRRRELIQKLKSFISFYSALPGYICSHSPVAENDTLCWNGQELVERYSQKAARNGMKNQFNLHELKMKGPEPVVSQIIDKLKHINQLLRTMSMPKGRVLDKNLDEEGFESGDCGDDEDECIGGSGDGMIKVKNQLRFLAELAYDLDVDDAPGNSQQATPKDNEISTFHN

[2] = target: T2, soluble form of GPC3 core protein (human, UniProt P51654 25-563); test: competitive ELISA on coated soluble GPC3 core protein; labelled competitor biotin-L9G11;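 note: Biotin-labelled antibody added as 10 µL at 10 µg/mL for 1 h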
T2 construct: not shown: His tag added to the C-terminus

[3] = target: T1, full-length human GPC3; test: flow cytometry, antibody at 5 µg/mL, HuH-7 cells
[4] = target: T2, soluble form of GPC3 core protein; test: competitive ELISA on coated soluble GPC3 core protein; labelled competitor biotin-M11F1;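 note: Biotin-labelled antibody added as 10 µL at 10 µg/mL for 1 h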
[5] = target: T2, soluble form of GPC3 core protein; test: competitive ELISA on coated soluble GPC3 core protein; labelled competitor biotin-M18D4;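 note: Biotin-labelled antibody added as 10 µL at 10 µg/mL for 1 h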
[6] = target: T2, soluble form of GPC3 core protein; test: ELISA on plate coated with soluble GPC3 core protein
[7] = target: T2, soluble form of GPC3 core protein; test: competitive ELISA on coated soluble GPC3 core protein; labelled competitor biotin-M10D2;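 note: Biotin-labelled antibody added as 10 µL at 10 µg/mL for 1 h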
[8] = target: T1, full-length human GPC3; test: BIACORE; the form of GPC3 used is not given
[9] = target: T3, GC-3 (GST fusion of GPC3 Ala524 to Lys563) (human, UniProt P51654 524-563); test: Western blotting of GST-fusion proteins, reducing SDS-PAGE
T3 construct: not shown: GST as encoded by pGEX-4T-3 (Amersham), N-terminal to the GPC3 peptide
T3 chain: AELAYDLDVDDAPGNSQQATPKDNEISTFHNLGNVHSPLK

[10] = target: T2, soluble form of GPC3 core protein; test: competitive ELISA on coated soluble GPC3 core protein; labelled competitor biotin-M1E7;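 note: Biotin-labelled antibody added as 10 µL at 10 µg/mL for 1 h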
[11] = target: T1, full-length human GPC3; test: flow cytometry, antibody at 5 µg/mL, CHO cells expressing human GPC3 (column CHO/human GPC3)
[12] = target: T2, soluble form of GPC3 core protein; test: competitive ELISA on coated soluble GPC3 core protein; labelled competitor biotin-M6B1;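 note: Biotin-labelled antibody added as 10 µL at 10 µg/mL for 1 h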
[13] = target: T2, soluble form of GPC3 core protein; test: competitive ELISA on coated soluble GPC3 core protein; labelled competitor biotin-M5B9;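 note: Biotin-labelled antibody added as 10 µL at 10 µg/mL for 1 h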
[14] = target: T2, soluble form of GPC3 core protein; test: competitive ELISA on coated soluble GPC3 core protein; labelled competitor biotin-M3C11;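 note: Biotin-labelled antibody added as 10 µL at 10 µg/mL for 1 h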
[15] = target: T2, soluble form of GPC3 core protein; test: ELISA on plate coated with soluble GPC3 core protein; antibody from COS7 culture supernatant [middle left panel]
[16] = target: T1, full-length human GPC3; test: flow cytometry, antibody at 5 µg/mL, CHO cells expressing human GPC3 (column CHO/human GPC3); remark: listed apart in the source
[17] = target: T1, full-length human GPC3; test: flow cytometry, antibody at 5 µg/mL, HepG2 cells; remark: listed apart in the source
[18] = target: T1, full-length human GPC3; test: flow cytometry, antibody at 5 µg/mL, HuH-7 cells; remark: listed apart in the source
[19] = target: T2, soluble form of GPC3 core protein; test: ELISA on plate coated with soluble GPC3 core protein; remark: listed apart in the source
[20] = target: T3, GC-3 (GST fusion of GPC3 Ala524 to …); test: Western blotting of GST-fusion proteins
[21] = target: T2, soluble form of GPC3 core protein; test: ELISA on plate coated with soluble GPC3 core protein; antibody from COS7 culture supernatant [upper left panel]
[22] = target: T2, soluble form of GPC3 core protein; test: ELISA on plate coated with soluble GPC3 core protein; antibody from COS7 culture supernatant [upper right panel]
[23] = target: T2, soluble form of GPC3 core protein; test: ELISA on GPC3 (the legend says only GPC3; the filing's ELISA uses plates coated with soluble GPC3 core protein) [lower panel]
[24] = target: T2, soluble form of GPC3 core protein; test: ELISA on plate coated with soluble GPC3 core protein; antibody from COS7 culture supernatant [lower left panel]

FACS X-mode value of the histogram [1]: 59
Inhibition of the binding of indicated biotin-Mab to sGPC3 core (%) [2]: 33.1%
FACS X-mode value of the histogram [3]: 9
Inhibition of the binding of indicated biotin-Mab to sGPC3 core (%) [4]: 12%
Inhibition of the binding of indicated biotin-Mab to sGPC3 core (%) [5]: 10.3%
EC50 [6]: 120 pM
Inhibition of the binding of indicated biotin-Mab to sGPC3 core (%) [7]: 39.9%
Kd [8]: 300 pM
koff [8]: 6.5e-05 s⁻¹
kon [8]: 250000 M⁻¹ s⁻¹
binding result [9]: no binding
Inhibition of the binding of indicated biotin-Mab to sGPC3 core (%) [10]: 96.2%
FACS X-mode value of the histogram [11]: 83
Inhibition of the binding of indicated biotin-Mab to sGPC3 core (%) [12]: 11.2%
Inhibition of the binding of indicated biotin-Mab to sGPC3 core (%) [13]: 9.1%
Inhibition of the binding of indicated biotin-Mab to sGPC3 core (%) [14]: 96.8%
B1: M3C11 (antibody, human IgG1, kappa, V domains shown)
VH: EVQLVESGGGLVKPGGSLKLSCAASGFTFSRYAMSWVRQIPEKILEWVAAIDSSGGDTYYLDTVKDRFTISRDNANNTLHLQMRSLRSEDTALYYCVRQGGAYWGQGTLVTVSA
VL: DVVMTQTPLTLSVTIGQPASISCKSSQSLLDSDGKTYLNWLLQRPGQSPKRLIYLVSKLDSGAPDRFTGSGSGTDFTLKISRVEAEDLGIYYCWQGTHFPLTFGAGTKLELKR
notes: Mouse monoclonal from hybridoma

EC50 (read off the curve) [15]: ~0.03 µg/mL
B2: G34P (antibody, V domains shown)
VH: QVQLVQSGAEVKKPGASVKVSCKASGYTFTDYEMHWVRQAPGQGLEWMGALDPKTGDTAYSQKFKGRVTLTADKSTSTAYMELSSLTSEDTAVYYCTRFYSYTYWGQGTLVTVSS
VL: DVVMTQSPLSLPVTPGEPASISCRSSQSLVHSNPNTYLHWYLQKPGQSPQLLIYKVSNRFSGVPDRFSGSGSGTDFTLKISRVEAEDVGVYYCSQNTHVPPTFGQGTKLEIK
notes: also called modified humanized GC33 (H chain ver.k, L chain G34P)

FACS X-mode value of the histogram [16]: 82.7
FACS X-mode value of the histogram [17]: 52
FACS X-mode value of the histogram [18]: 8.4
EC50 [19]: 240 pM
binding result [20]: binds
B3: GC33 (antibody, V domains shown)
VH: QVQLQQSGAELVRPGASVKLSCKASGYTFTDYEMHWVKQTPVHGLKWIGALDPKTGDTAYSQKFKGKATLTADKSSSTAYMELRSLTSEDSAVYYCTRFYSYTYWGQGTLVTVSA
VL: B2 VL with S7T, T14S, P15L, E17D, P18Q, P34G, Q50K, V88L, Y92F, Q105S
notes: Mouse monoclonal from a mouse immunized with GC-3; also called GC33 antibody

EC50 (read off the curve) [21]: ~0.02 µg/mL
B4: modified humanized GC33 (H chain ver.k, L chain G34D) (antibody, human IgG1, V domains shown)
VH: B2 VH
VL: B2 VL with P34D
notes: COS7 supernatant; human IgG1/kappa

EC50 (read off the curve) [22]: ~0.02 µg/mL
B5: modified humanized GC33 (H chain ver.k, L chain G34E) (antibody, human IgG1, V domains shown)
VH: B2 VH
VL: B2 VL with P34E
notes: as for B4

EC50 (read off the curve) [22]: ~0.02 µg/mL
B6: modified humanized GC33 (H chain ver.k, L chain G34F) (antibody, human IgG1, V domains shown)
VH: B2 VH
VL: B2 VL with P34F
notes: as for B4

EC50 (read off the curve) [23]: ~0.03 µg/mL
B7: humanized GC33 H chain ver.i / L chain ver.a (antibody, V domains shown)
VH: B2 VH with K74E, T87R
VL: B2 VL with P34G

EC50 (read off the curve) [21]: ~0.02 µg/mL
B8: modified humanized GC33 (H chain ver.k, L chain G34A) (antibody, human IgG1, V domains shown)
VH: B2 VH
VL: B2 VL with P34A
notes: as for B4

EC50 (read off the curve) [23]: ~0.03 µg/mL
B9: humanized GC33 H chain ver.h / L chain ver.a (antibody, V domains shown)
VH: B2 VH with Q6E
VL: B2 VL with P34G

EC50 (read off the curve) [15]: ~0.02 µg/mL
B10: modified humanized GC33 (H chain ver.k, L chain G34Q) (antibody, human IgG1, V domains shown)
VH: B2 VH
VL: B2 VL with P34Q
notes: as for B4

EC50 (read off the curve) [15]: ~0.02 µg/mL
B11: modified humanized GC33 (H chain ver.k, L chain G34N) (antibody, human IgG1, V domains shown)
VH: B2 VH
VL: B2 VL with P34N
notes: as for B4

EC50 (read off the curve) [23]: ~0.03 µg/mL
B12: GC33 mouse H chain variable region / humanized L chain ver.a (antibody, V domains shown)
VH: B3 VH
VL: B2 VL with P34G
notes: also called mouse/ver.a

EC50 (read off the curve) [24]: ~0.02 µg/mL
B13: modified humanized GC33 (H chain ver.k, L chain G34W) (antibody, human IgG1, V domains shown)
VH: B2 VH
VL: B2 VL with P34W
notes: as for B4

EC50 (read off the curve) [24]: ~0.02 µg/mL
B14: modified humanized GC33 (H chain ver.k, L chain G34Y) (antibody, human IgG1, V domains shown)
VH: B2 VH
VL: B2 VL with P34Y
notes: as for B4

EC50 (read off the curve) [24]: ~0.02 µg/mL
B15: G34V (antibody, V domains shown)
VH: B2 VH
VL: B2 VL with P34V
notes: also called modified humanized GC33 (H chain ver.k, L chain G34V)

EC50 (read off the curve) [22]: ~0.02 µg/mL
B16: modified humanized GC33 (H chain ver.k, L chain G34H) (antibody, human IgG1, V domains shown)
VH: B2 VH
VL: B2 VL with P34H
notes: as for B4

FACS X-mode value of the histogram [16]: 7.1
FACS X-mode value of the histogram [17]: 6.5
FACS X-mode value of the histogram [18]: 3.8
EC50 [19]: 5610 pM
binding result [20]: binds
B17: GC179 (antibody, V domains shown)
VH: EVQLVETGGGLVQPEGSLKLSCAASGFSFNINAMNWVRQAPGKGLEWVARIRSESNNYATYYGDSVKDRFTISRDDSQNMLYLQMNNLKTEDTAIYYCVREVTTSFAYWGQGTLVTVSA
VL: DIVMTQSAPSVPVTPGESVSISCKSSKSLLHSNGNTYLNWFLQRPGQSPQLLIYWMSNLASGVPDRFSGSGSGTAFTLRISRVEAEDVGVYYCMQHIEYPFTFGTGTKLEIK
notes: Mouse monoclonal from a mouse immunized with GC-3

FACS X-mode value of the histogram [16]: 15.5
FACS X-mode value of the histogram [17]: 12.2
FACS X-mode value of the histogram [18]: 2.4
EC50 [19]: 100 pM
binding result [20]: binds
B18: GC199 (antibody, V domains shown)
VH: QIQLEQSGPELKKPGETVKISCKASGYIFRDYSMHWVKQAPGKGLKWMGWINTETGEPTYADDFKGRFAFSLETSASTAYLQINNLKNEDTATYFCTSLYWGQGTLVTVSA
VL: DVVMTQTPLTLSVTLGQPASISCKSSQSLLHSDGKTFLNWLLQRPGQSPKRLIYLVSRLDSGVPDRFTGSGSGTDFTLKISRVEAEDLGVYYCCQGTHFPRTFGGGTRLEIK
notes: Mouse monoclonal from a mouse immunized with GC-3; also called GC199 antibody
